The values that follow come from article PMC10292028.

Substrate in data set [1]: N[C@@H](Cc1c[nH]c2ccccc12)C(=O)O
Nature of the data set: HPLC end-point assay, Michaelis-Menten fit. In kind it is biochemical, Streptomyces sp. RM-5-8. The note with it: 2 mM DMAPP, 50 mM Tris pH 8.0, 37 °C.

Substrate in data set [2]: N[C@@H](Cc1c[nH]c2ccccc12)C(=O)O
Nature of the data set: HPLC end-point assay, Michaelis-Menten fit. The format is biochemical, Micromonospora olivasterospora. The note with it: 2 mM DMAPP, 50 mM Tris pH 8.0, 37 °C.

Residue numbers refer to the chain shown, from its start. Names may count otherwise.

B1: PriB (Streptomyces sp. RM-5-8) (protein)
chain: MGGPMSGFHSGEALLGDLATGQLTRLCEVAGLTEADTAAYTGVLIESLGTSAGRPLSLPPPSRTFLSDDHTPVEFSLAFLPGRAPHLRVLVEPGCSSGDDLAENGRAGLRAVHTMADRWGFSTEQLDRLEDLFFPSSPEGPLALWCALELRSGGVPGVKVYLNPAANGADRAAETVREALARLGHLQAFDALPRADGFPFLALDLGDWDAPRVKIYLKHLGMSAADAGSLPRMSPAPSREQLEEFFRTAGDLPAPGDPGPTEDTGRLAGRPALTCHSFTETATGRPSGYTLHVPVRDYVRHDGEARDRAVAVLREHDMDSAALDRALAAVSPRPLSDGVGLIAYLALVHQRGRPTRVTVYVSSEAYEVRPPRETVPTRDRARARL
B1: in data set [1], the Km result is “(42.9 ± 6.9) × 10^−2 mM”, the kcat was determined as 0.33 ± 0.0133 s⁻¹ and the kcat/Km is 770 M⁻¹ s⁻¹.

B2: 6DMATSmo (Micromonospora olivasterospora) (protein)
chain: MAGLSVSDHLDGQLARLCEVAGADPVEPRNLLAGLLGPVGPRPLYEPPAWPSGVSDDHTPVEFSIAFNEAEPPTLRILGETLGSPPGPLANLSATRGFLDAQARRAGLSTSRLDSVRDLFATDDPQGDFAMWCSLVFRSSRRPEFKVYLNPEVKGVERSPALVSEALHRLGLGASYRALLDHGVRPGELGRGDRLTFFAVDLHDGPQARVKLYLTHHEAEVWDVTRAASVVDGVDVAEIEEFCVVAGGGTRRFDGRPLVGSYTFTEGADRPVGYSIYVPIRSYVTDDQEARDRVAALLVRYGFDTDGLDRAIAAVTPRPLRDGVGLIAHVSLRLGAPRPGVTVYLSAEAYRVSPPRPRRMPAGRDVSPAPVGRTRP
For B2, in data set [2], the Km entry is “(33.1 ± 2.5) × 10^−2 mM”, the kcat came out at 0.0917 ± 0.00167 s⁻¹ and the kcat/Km turned out to be 277 M⁻¹ s⁻¹.

B3: 6DMATSmo (Micromonospora olivasterospora; H329Y) (protein)
chain: B2 chain with H329Y
In the case of B3, in data set [2], the Km entry is “(26.7 ± 1.6) × 10^−2 mM”, the kcat came out at 0.000783 ± 1.17e-05 s⁻¹ and the kcat/Km was found to be 2.93 M⁻¹ s⁻¹.

B4: 6DMATSmo (Micromonospora olivasterospora; Y277H) (protein)
chain: B2 chain with Y277H
In the case of B4, in data set [2], the Km result is “(38.2 ± 0.1) × 10^−2 mM”, the kcat was found to be 0.00108 ± 3.33e-05 s⁻¹ and the kcat/Km turned out to be 2.83 M⁻¹ s⁻¹.

B5: 6DMATSmo (Micromonospora olivasterospora; H329Y/Y277H) (protein)
chain: B2 chain with Y277H, H329Y
Turning to B5, in data set [2], the Km turned out to be 1000 ± 100 µM, the kcat was 0.00182 ± 3.33e-05 s⁻¹ and the kcat/Km came out at 1.82 M⁻¹ s⁻¹.

As a reminder, the Km is the substrate concentration at which the rate is half of its maximum. One may read the kcat as the maximal rate divided by the concentration of active sites. What is called kcat/Km is the turnover number divided by the Michaelis constant.
